Test results taken from patent US20250136718A1 (MABWELL THERAPEUTICS, published 2025).

T1: TMPRSS6 expressed in transfected HepG2 cells (HAMP-luciferase reporter assay) (UniProt Q8IU80 1-811, limits assumed)
T1 sequence (looked up): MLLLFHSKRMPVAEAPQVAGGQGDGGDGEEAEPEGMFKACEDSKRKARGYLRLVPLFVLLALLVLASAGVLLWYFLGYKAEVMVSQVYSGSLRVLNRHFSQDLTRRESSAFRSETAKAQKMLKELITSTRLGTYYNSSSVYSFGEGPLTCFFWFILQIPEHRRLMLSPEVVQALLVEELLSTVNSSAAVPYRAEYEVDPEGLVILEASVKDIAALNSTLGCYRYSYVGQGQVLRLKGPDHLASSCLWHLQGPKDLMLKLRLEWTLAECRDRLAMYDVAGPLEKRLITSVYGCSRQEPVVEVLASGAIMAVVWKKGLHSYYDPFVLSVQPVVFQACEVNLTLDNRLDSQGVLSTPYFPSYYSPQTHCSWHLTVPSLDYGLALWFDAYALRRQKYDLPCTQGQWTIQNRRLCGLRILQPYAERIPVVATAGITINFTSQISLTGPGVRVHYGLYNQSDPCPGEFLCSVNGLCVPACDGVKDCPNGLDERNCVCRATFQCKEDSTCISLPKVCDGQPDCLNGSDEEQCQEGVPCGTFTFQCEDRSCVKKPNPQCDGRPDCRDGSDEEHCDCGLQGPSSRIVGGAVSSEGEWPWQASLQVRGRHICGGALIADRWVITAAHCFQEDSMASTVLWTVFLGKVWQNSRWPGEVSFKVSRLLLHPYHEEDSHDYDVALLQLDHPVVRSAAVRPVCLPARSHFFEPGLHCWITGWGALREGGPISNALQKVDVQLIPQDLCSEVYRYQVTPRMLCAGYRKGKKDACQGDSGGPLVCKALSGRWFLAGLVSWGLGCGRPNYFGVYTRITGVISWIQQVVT

T2: human TMPRSS6 (matriptase-2) expressed on HEK293T cells, huTMPRSS6-(His)6 (UniProt Q8IU80 10-811)
T2 chain: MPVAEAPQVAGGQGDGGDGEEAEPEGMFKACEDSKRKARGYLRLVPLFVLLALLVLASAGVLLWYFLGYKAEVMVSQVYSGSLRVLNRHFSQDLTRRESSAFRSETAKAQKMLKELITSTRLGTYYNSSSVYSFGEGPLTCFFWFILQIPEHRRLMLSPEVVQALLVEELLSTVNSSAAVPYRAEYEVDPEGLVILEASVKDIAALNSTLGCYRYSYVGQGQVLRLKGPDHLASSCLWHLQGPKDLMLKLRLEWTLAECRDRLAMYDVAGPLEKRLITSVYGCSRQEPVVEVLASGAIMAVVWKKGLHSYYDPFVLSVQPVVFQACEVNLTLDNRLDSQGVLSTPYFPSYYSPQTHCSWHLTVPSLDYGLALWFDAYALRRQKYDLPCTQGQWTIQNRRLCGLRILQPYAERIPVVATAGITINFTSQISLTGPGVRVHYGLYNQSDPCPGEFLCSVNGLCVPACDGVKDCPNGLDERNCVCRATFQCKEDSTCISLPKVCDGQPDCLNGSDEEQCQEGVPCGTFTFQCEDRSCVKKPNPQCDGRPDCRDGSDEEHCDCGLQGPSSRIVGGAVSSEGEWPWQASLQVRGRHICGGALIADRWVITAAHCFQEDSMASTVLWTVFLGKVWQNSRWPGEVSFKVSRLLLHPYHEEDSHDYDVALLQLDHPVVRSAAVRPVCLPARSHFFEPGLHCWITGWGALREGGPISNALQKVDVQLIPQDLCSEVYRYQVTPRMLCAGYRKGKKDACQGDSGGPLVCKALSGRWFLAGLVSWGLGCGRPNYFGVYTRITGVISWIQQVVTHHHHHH

T3: human ecto-TMPRSS6-FLAG (UniProt Q8IU80 77-811)
T3 chain: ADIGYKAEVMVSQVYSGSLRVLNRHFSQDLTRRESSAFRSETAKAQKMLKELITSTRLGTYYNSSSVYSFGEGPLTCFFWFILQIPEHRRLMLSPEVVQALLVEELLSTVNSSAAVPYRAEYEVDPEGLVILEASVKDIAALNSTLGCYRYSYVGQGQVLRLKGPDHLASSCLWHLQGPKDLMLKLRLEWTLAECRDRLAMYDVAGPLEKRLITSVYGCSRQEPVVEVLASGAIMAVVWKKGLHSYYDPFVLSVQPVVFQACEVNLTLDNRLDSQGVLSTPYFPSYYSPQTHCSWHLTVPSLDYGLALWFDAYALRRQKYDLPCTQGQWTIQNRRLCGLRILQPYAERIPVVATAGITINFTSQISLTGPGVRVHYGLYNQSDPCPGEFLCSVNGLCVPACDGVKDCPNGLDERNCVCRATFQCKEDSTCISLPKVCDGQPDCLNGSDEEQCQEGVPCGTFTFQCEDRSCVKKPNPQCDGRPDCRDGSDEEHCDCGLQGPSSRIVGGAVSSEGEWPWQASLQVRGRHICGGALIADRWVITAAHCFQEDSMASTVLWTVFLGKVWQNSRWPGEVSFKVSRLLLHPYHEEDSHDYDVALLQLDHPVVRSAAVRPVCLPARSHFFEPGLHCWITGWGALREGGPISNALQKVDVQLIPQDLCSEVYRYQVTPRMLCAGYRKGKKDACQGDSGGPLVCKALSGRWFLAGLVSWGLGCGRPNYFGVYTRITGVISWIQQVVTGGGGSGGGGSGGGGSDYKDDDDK

B1: humanized anti-TMPRSS6 antibody variant hzMWTx-003 Var (antibody, human IgG1, kappa, L234A L235A, V domains shown)
VH: QVQLVQSGAEVKKPGASVKVSCKASGFNIEDYYMHWVRQAPGQRLEWMGRIDPEDAETTYSPKFQGRVTIIPDTSANTAYMELSSLRSEDTAVYYCARSIYLDPMDYWGQGTLVTVSS
VL: DIQMTQSPKSLSASVGDRVTITCRASQDVTTALAWYQQKPGQSPKLLIYWATTRHSGVPSRFSGSGSGTDFTLTISSLQPEDFATYYCQQHYSTPYTFGQGTKLEIKR
notes: Human IgG1 / kappa
B2: humanized anti-TMPRSS6 antibody variant hzMWTx-001 Var (antibody, human IgG1, kappa, N297A, V domains shown)
VH: EVQLVQSGAEVKKPGASVKVSCKASGYTFTSYWITWVRQAPGQRLEWIGNIYPGSGSTYYNEKFKSKATITRDTSSRTAYMELSSLRSEDTAVYYCAPYDADYAMDYWGQGTLVTVSS
VL: DIQMTQSPSSLSASVGDRVTITCKASQDISNYLSWFQQKPGKAPKLLIYRANRLVEGVPSRFSGSGSGTDFTLTISSLQPEDFATYFCLQYDEFPLTFGGGTKVEIKR
notes: Human IgG1 / kappa
B3: MWTx-001 anti-TMPRSS6 monoclonal antibody (antibody, mouse IgG2a, kappa, V domains shown)
VH: QVQLQQPGAELAKPGASVKMSCKASGYTFTSYWITWVKQRPGQDLEWIGNIYPGSGSTYYNEKFKSKATLTVDTSSRTAYMQLSSLTSADSAVYYCAPYDSDYAMDYWGQGTSVTVSS
VL: DIKMTQSPSSMYASLGERVTITCKASQDINNYLSWFQQKPGKSPKTLIYRANRLVDGVPSRVSGSGSGQDYSLTISSLEYEDVGIYFCLQYDEFPLTFGAGTKLELKR
notes: Mouse monoclonal antibody from hybridoma (ATCC PTA-126759)
B4: MWTx-003 anti-TMPRSS6 monoclonal antibody (antibody, mouse IgG2b, kappa, V domains shown)
VH: EVQLQQSGAELVKPGASVKLSCTASGFNIEDYYIHWVKERTEQGLEWIGRIDPEDGETTYAPQFQGKATIIPDTSSNTAYMQLSSLTSEDAAVYYCARSIYLDPMDYWGQGTSVTVSS
VL: DIVMTQSHKFMSTSVGDRVSITCKASQDVTTAVAWYQQKPGQSPKILIYWATTRHTGVPDRFTGSISGTTYILTISSVQAEDLALYYCQQHYSTPYTFGGGTKLEIKR
notes: Mouse monoclonal antibody from hybridoma (ATCC PTA-126761); The recombinant version r4K12B has the same HC and LC; also called r4K12B; recombinant MWTx-003
B5: humanized anti-TMPRSS6 antibody variant hzMWTx-002 Var (antibody, human IgG1, kappa, N297A, V domains shown)
VH: EVQLVQSGAEVKKPGASVKVSCKASGFNIKDYYIHWVRQATGQGLEWMGRIDPEDAESEYAPKFQGRVTITADTSTDTAYMELSSLRSEDTAVYYCTRGDSMMVTYFDYWGQGTLVTVSS
VL: DIQMTQSPSSLSASVGDRVTITCKASQDVSTAVAWYQQKPGKAPKLLIYWAFTRHTGVPSRFSGSGSGTDYALTISSLQPEDFATYYCQQHYRSPWTFGGGTKVEIKR
notes: Human IgG1 / kappa
B6: MWTx-002 anti-TMPRSS6 monoclonal antibody (antibody, mouse IgG2b, kappa, V domains shown)
VH: EVQLQQSGAELVKPGASVKLSCTASGFNIKDYYIHWVKERTEQGLEWFGRIDPEDGESEYAPKFQGKATLTADTSSNTAYLQLSSLTSEDTAVYYCTRGDSMMVTYFDYWGQGTTLTVSS
VL: DIVMTQSHKFMSTSVGDRVSITCKASQDVSTAVAWYQQKPGQSPKLLIYWAFTRHTGVPDRFTSTGSGTDYALTISSVQAEDLALYYCQQHYRSPWTFGGGTKLEIKR
notes: Mouse monoclonal antibody from hybridoma (ATCC PTA-126760)

Target: T1, TMPRSS6 expressed in transfected HepG2 …
Assay: cell-based or functional assay

Row | EC50 of the increase of HAMP promoter activity (HAMP-luciferase reporter assay, HepG2 cells expressing TMPRSS6, hBMP6) [µg/mL] | Binder
1 | 0.3 | B1
2 | 0.8 | B2
3 | 3 | B3
4 | 2 | B4
5 | 0.3 | B5
6 | 1 | B6

Target: T2, human TMPRSS6 (matriptase-2) expressed …
Assay: FACS

Row | EC50 [µg/mL] | Binder
7 | 1 | B3
8 | 0.2 | B4
9 | 0.2 | B6

Target: T3, human ecto-TMPRSS6-FLAG
Assay: BLI (Octet)

Row | Kd [nM] | Binder
10 | 13.7 | B1
11 | 3.36 | B2
12 | 0.66 | B3
13 | 6.4 | B4
14 | 18.4 | B5
15 | 0.82 | B6

Target: T2, human TMPRSS6 (matriptase-2) expressed …
Assay: cell surface ELISA

Row | EC50 [µg/mL] | Binder
16 | 0.2 | B3
17 | 0.05 | B4
18 | 0.04 | B6
